From publication PMC7498313, “The Sac10b homolog from Sulfolobus islandicus is an RNA chaperone”

How the values were obtained:
Sis10b K17A [1] = target: T1, Sis10b K17A (Sulfolobus islandicus REY15A, UniProt F0NHH1 1-97, K17A); experiment: EMSA; 55°C; no ssRNA preference over dsRNA; EMSA: 20 mM HEPES-NaOH pH 7.0, 1 mM DTT, 100 ug/ml BSA, 6% glycerol, 30 min at 25, 37 or 55°C; gel in 0.5x TBE at the same temperature; conditions: protein: recombinant; tags: none; chain copies: 2; label: 5' 32P; single strand
T1 sequence: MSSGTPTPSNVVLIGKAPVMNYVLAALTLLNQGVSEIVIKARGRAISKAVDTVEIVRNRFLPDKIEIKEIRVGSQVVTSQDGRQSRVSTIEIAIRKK

Sis10b K16A [2] = target: T2, Sis10b K16A (Sulfolobus islandicus REY15A, UniProt F0NHH1 1-97, K16A); experiment: EMSA; 37°C; slightly weaker than dsRNA; EMSA: 20 mM HEPES-NaOH pH 7.0, 1 mM DTT, 100 ug/ml BSA, 6% glycerol, 30 min at 25, 37 or 55°C; gel in 0.5x TBE at the same temperature; conditions: protein: recombinant; tags: none; chain copies: 2; label: 5' 32P; single strand
T2 sequence: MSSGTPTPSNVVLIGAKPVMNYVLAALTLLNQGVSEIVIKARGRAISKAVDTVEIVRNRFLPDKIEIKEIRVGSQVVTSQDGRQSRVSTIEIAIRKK

Sis10b K17R [3] = target: T3, Sis10b K17R (Sulfolobus islandicus REY15A, UniProt F0NHH1 1-97, K17R); experiment: as above; conditions: protein: recombinant; tags: none; chain copies: 2; label: 5' 32P; single strand
T3 sequence: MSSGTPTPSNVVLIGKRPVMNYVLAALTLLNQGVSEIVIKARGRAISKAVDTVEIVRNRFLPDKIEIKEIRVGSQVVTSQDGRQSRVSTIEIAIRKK

Sis10b K16A [4] = target: T2, Sis10b K16A; experiment: EMSA; 37°C; 1.1-1.7-fold better than ssRNA; EMSA: 20 mM HEPES-NaOH pH 7.0, 1 mM DTT, 100 ug/ml BSA, 6% glycerol, 30 min at 25, 37 or 55°C; gel in 0.5x TBE at the same temperature; conditions: protein: recombinant; tags: none; chain copies: 2; label: 5' 32P on top strand; blunt
Sis10b K17A [5] = target: T1, Sis10b K17A; experiment: as above; conditions: protein: recombinant; tags: none; chain copies: 2; label: 5' 32P on top strand; blunt
Sis10b ΔN12 = target: T4, Sis10b ΔN12 (Sulfolobus islandicus REY15A, UniProt F0NHH1 13-97, del1-12); experiment: EMSA; 55°C; EMSA: 20 mM HEPES-NaOH pH 7.0, 1 mM DTT, 100 ug/ml BSA, 6% glycerol, 30 min at 25, 37 or 55°C; gel in 0.5x TBE at the same temperature; conditions: protein: recombinant; tags: none; chain copies: 2; label: 5' 32P on top strand; blunt
T4 sequence: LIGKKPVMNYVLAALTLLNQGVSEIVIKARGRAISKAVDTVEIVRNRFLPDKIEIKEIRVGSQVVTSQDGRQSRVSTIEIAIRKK

[6] = target: T5, Sis10b M20E/L24E/L27E/F60E (Sulfolobus islandicus REY15A, UniProt F0NHH1 1-97, M20E;L24E;L27E;F60E); experiment: as above; conditions: protein: recombinant; tags: none; chain copies: 2; label: 5' 32P on top strand; blunt
T5 sequence: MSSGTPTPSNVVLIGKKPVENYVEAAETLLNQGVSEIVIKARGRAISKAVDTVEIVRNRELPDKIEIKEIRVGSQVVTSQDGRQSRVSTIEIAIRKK

Sis10b K17R [7] = target: T3, Sis10b K17R; experiment: as above; conditions: protein: recombinant; tags: none; chain copies: 2; label: 5' 32P on top strand; blunt

Binder | binding result (Sis10b K17A [1]) | binding result (Sis10b K16A [2]) | binding result (Sis10b K17R [3]) | binding result (Sis10b K16A [4]) | binding result (Sis10b K17A [5]) | Kd (Sis10b ΔN12) [nM] | Kd [6] [nM] | Kd (Sis10b K17R [7]) [nM]
UGACUUCCGCGCGUGAGCUCGAUUCCACAUACCCUAAAUCGCUC (ssRNA) [44-nt ssRNA (t)] | binds | binds | binds | – | – | – | – | –
44-bp dsRNA (dsRNA) RNA 1: UGACUUCCGCGCGUGAGCUCGAUUCCACAUACCCUAAAUCGCUC RNA 2: GAGCGAUUUAGGGUAUGUGGAAUCGAGCUCACGCGCGGAAGUCA | – | – | – | binds | binds | ~98.1 | ~82.3 | ~28.2
